This is an account of results in PMC6242696 (Cell, 2018).

Data set [1] addresses T1, GDP/GTP carrier Ggc1 (containing the mutation C222S), C-terminal 6xHis-tag (Saccharomyces cerevisiae, C222S (stands in the printed letters)).
T1 chain: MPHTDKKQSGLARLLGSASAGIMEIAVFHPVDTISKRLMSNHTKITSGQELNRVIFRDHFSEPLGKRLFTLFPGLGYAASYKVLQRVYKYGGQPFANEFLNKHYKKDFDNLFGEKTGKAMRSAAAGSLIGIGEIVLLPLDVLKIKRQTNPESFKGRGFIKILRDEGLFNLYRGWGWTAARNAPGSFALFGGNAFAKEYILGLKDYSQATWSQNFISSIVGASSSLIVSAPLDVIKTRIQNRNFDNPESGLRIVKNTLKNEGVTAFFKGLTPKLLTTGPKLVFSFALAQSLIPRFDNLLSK
Put plainly: AUC + other: diffusion-ordered NMR.

In data set [2] the target is Aac3(2TM), comprising transmembrane helices 2 and 3 (residues 50-180), N-terminal 6xHis-Tag. Put plainly: AUC + other: diffusion-ordered NMR.
In data set [3] the target is T1, GDP/GTP carrier Ggc1 (containing the …). Put plainly: SAXS with online Ni-NTA purification.
Data set [4] concerns the molecule itself. The data set is described as follows: SEC. (Size exclusion chromatography separates by hydrodynamic size, large species first.)
The target in data set [5] is T2, Tim10 V29K (subunit of the mutant complex) (Saccharomyces cerevisiae, UniProt P87108 2-93, V29K).
T2 sequence (looked up): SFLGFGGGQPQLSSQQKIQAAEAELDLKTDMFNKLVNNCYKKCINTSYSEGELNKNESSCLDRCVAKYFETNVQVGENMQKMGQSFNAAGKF
Put plainly: SEC.

For data set [6], the target named is T3, Tim10 M32K (subunit of the mutant complex) (Saccharomyces cerevisiae, UniProt P87108 2-93, M32K).
T3 sequence (looked up): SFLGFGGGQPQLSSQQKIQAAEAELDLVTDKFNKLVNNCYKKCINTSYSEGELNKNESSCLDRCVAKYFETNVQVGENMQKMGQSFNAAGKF
The data set is described as follows: SEC.

B1: TIM9⋅10 chaperone complex (hexamer of Tim9 and Tim10), wild type (complex, Saccharomyces cerevisiae)
chain 1: MDALNSKEQQEFQKVVEQKQMKDFMRLYSNLVERCFTDCVNDFTTSKLTNKEQTCIMKCSEKFLKHSERVGQRFQEQNAALGQGLGR
chain 2: GSFLGFGGGQPQLSSQQKIQAAEAELDLVTDMFNKLVNNCYKKCINTSYSEGELNKNESSCLDRCVAKYFETNVQVGENMQKMGQSFNAAGKF
One may read the stoichiometry N as the number of molecules, sites or subunits per partner or assembly. Regarding B1, the results for the “stoichiometry N” value in data set [1], in data set [2] and in data set [3] were 2 TIM9⋅10 hexamers per precursor protein, 1 TIM9⋅10 hexamer per precursor chain and 2 TIM9⋅10 hexamers per Ggc1, respectively.

B2: Tim9 (individual subunit) (natural protein, Saccharomyces cerevisiae)
chain: MDALNSKEQQEFQKVVEQKQMKDFMRLYSNLVERCFTDCVNDFTTSKLTNKEQTCIMKCSEKFLKHSERVGQRFQEQNAALGQGLGR
On to B2, for which the “stoichiometry N” value in data set [4] is 2. Besides, the binding result in data set [5] and in data set [6] was “binds” throughout.
